# Source: the supplement of paper PMC6757056
# ± gives the standard deviation of the averaged measurements.
# B1: library; a variant is named by its letters at N, in order (parent)
# chain: GCUGUCACCGGUGCUUGGUACGUUAUAUUCAGCCGGUCUGAUGAGUCUNNNNNNAGACGAAACAGC
# Experiments:
# (6R,S)-folinic acid [1] = variants of: B1; test: normalized RNA/DNA level without ligand (relative to sTRSVctl = 100) (log10 (% of sTRSVctl)); HEK293T overexpressing SLC46A1; higher = less ribozyme self-cleavage, higher mRNA level; conditions: without (6R,S)-folinic acid; ligand present: no
# Procedure, shortened: (§1)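 Ribozyme switch library plasmids linked to reporters were introduced into HEK293T cells at 4 µg per 6-well well, with ligand, if any, added 1 h before. Total RNA was extracted with EDTA 72 h later, reverse-transcribed, amplified, barcoded and sequenced. RNA level was computed from RNA over DNA reads relative to a spiked-in non-cleaving sequence or the top sequences, then scaled and log-transformed. The top set was 25 sequences, values were ×100 and log10, and the cutoff was ≥100 DNA reads.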
# (6R,S)-folinic acid [2] = variants of: B1; test: normalized RNA/DNA level with ligand (relative to sTRSVctl = 100) (log10 (% of sTRSVctl)); HEK293T overexpressing SLC46A1; ligand concentration (+) RNA-Seq: 6 mM; higher = less ribozyme self-cleavage, higher mRNA level; conditions: with (6R,S)-folinic acid; ligand present: yes
# Procedure, shortened: as §1
Variant,"normalized RNA/DNA level without ligand (log10) ((6R,S)-folinic acid [1])","normalized RNA/DNA level with ligand (log10) ((6R,S)-folinic acid [2])"
UGCGGC,1.998 ± 0.006,1.98 ± 0.045
UGCGGU,1.976 ± 0.014,2.03 ± 0.025
UGCGGA,1.886 ± 0.0066,2.01 ± 0.04
CGCGGU,2.003 ± 0.019,2.035 ± 0.015
CGCGGG,1.938 ± 0.017,2.039 ± 0.01
CGCGGC,2.11 ± 0.023,2.13 ± 0.047
CGCGGA,2.052 ± 0.0026,2.05 ± 0.03
AGCCCU,2.078 ± 0.009,2.05 ± 0.042
AGCCCC,2.051 ± 0.0083,2 ± 0.036
AGCCCG,2.02 ± 0.0096,2.02 ± 0.0065
AGCCCA,2.045 ± 0.0089,2.02 ± 0.028
AGCCGC,2.037 ± 0.0083,2.02 ± 0.044
AGCCGG,2.068 ± 0.019,2.01 ± 0.045
AGCCGA,2.004 ± 0.0033,2.02 ± 0.025
AGAUCC,2.058 ± 0.0091,2.033 ± 0.02
AGAUCU,2.0242 ± 0.00035,2.05 ± 0.032
AGAUCG,1.992 ± 0.0077,2.013 ± 0.019
GGCGGC,2.012 ± 0.018,2.014 ± 0.013
GGCGGU,2.06 ± 0.026,2.03 ± 0.037
GGCGGA,2.064 ± 0.0089,2.021 ± 0.016
GGCGGG,2.1126 ± 0.00086,2.08 ± 0.028
CGCGAG,1.98 ± 0.039,2 ± 0.037
CGCGAA,1.9769 ± 0.0003,2.01 ± 0.031
CGCGAC,2.0427 ± 0.0011,2.04 ± 0.029
CGCGAU,1.939 ± 0.0057,1.97 ± 0.041
AGAUGU,1.971 ± 0.0095,2.02 ± 0.036
AGAUGC,2.017 ± 0.0026,2.03 ± 0.021
GGCCCU,2.099 ± 0.012,2.061 ± 0.013
GGCCCG,2.07 ± 0.0078,2.07 ± 0.023
